From paper doi:10.1101/2024.04.24.590897 (bioRxiv, 2024)

Target: Flag-LEDGF/p75 (UniProt O75475 1-530)
Assay: AlphaScreen or HTRF

B1: GST-LEDGF/p52 (natural protein)
chain: not shown
Does B1 bind?
Result: binds
